Non-standard residues stand in square brackets, D forms with d. Dap = NC[C@H](N)C(=O)O; Aib = CC(C)(N)C(=O)O
B1: Compound 41 (peptide)
peptide: H-HS[Dap](Ac)GTFTSDYSKYLD[Aib]ARAEEFVKWLEST-NH2
SMILES: CC(=O)NC[C@H](NC(=O)[C@H](CO)NC(=O)[C@@H](N)Cc1c[nH]cn1)C(=O)NCC(=O)N[C@H](C(=O)N[C@@H](Cc1ccccc1)C(=O)N[C@H](C(=O)N[C@@H](CO)C(=O)N[C@@H](CC(=O)O)C(=O)N[C@@H](Cc1ccc(O)cc1)C(=O)N[C@@H](CO)C(=O)N[C@@H](CCCCN)C(=O)N[C@@H](Cc1ccc(O)cc1)C(=O)N[C@@H](CC(C)C)C(=O)N[C@@H](CC(=O)O)C(=O)NC(C)(C)C(=O)N[C@@H](C)C(=O)N[C@@H](CCCNC(=N)N)C(=O)N[C@@H](C)C(=O)N[C@@H](CCC(=O)O)C(=O)N[C@@H](CCC(=O)O)C(=O)N[C@@H](Cc1ccccc1)C(=O)N[C@H](C(=O)N[C@@H](CCCCN)C(=O)N[C@@H](Cc1c[nH]c2ccccc12)C(=O)N[C@@H](CC(C)C)C(=O)N[C@@H](CCC(=O)O)C(=O)N[C@@H](CO)C(=O)N[C@H](C(N)=O)[C@@H](C)O)C(C)C)[C@@H](C)O)[C@@H](C)O

Target: human glucagon receptor (human, UniProt P47871 26-477)
Sequence (P47871 26-477): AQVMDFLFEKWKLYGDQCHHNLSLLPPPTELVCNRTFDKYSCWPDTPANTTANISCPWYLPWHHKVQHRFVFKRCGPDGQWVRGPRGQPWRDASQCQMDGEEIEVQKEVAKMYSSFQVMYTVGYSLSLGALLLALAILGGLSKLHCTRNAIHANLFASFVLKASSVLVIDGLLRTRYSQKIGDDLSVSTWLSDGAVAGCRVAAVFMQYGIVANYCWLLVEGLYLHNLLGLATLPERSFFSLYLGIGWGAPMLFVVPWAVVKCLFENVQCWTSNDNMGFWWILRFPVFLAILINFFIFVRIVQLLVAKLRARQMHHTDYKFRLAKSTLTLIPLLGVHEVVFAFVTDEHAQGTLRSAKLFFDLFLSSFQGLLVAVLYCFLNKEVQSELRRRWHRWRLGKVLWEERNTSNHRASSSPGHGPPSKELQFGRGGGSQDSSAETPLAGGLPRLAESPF
Experiment: cell-based or functional assay

Row | Binder | GCG-R EC50 in vitro [nM] (cAMP, AlphaScreen, HEK293 cells expressing human Glucagon-R)
1 | H-HSQGTFTSDYSRYLESARAEDFVKWLEST-OH [Compound 7] | 0.93
2 | B1 | 0.0038
3 | H-HSQGTFTSDYSKYLESARAEDFVKWLEST-OH [Compound 8] | 0.38
4 | H-HSQGTFTSDYSKYLDSARAEDFVEWLEST-OH [Compound 6] | 1
5 | H-HSQGTFTSDYSKYLDSARAEDFVAWLEST-OH [Compound 4] | 0.34
6 | H-HSQGTFTSDYSKYLDEARAKDFVEWLEKT-OH [Compound 5] | 0.17

From US20240067696A1 (ZEALAND PHARMA A S, published 2024)
